This series can be described thus: protein stability index of a GFP-peptide fusion (yeast GPS) (PSI 1-4); higher = more stable; sorted into four equal gates, so the index is relative within each strain. In short, it runs like this:
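Tiled 17-residue yeast protein peptides were fused downstream of GFP in a plasmid that also expresses Cherry, and the pooled library was carried in yeast. Mid-log cultures in leucine-free medium were sorted into four equal gates by GFP/Cherry fluorescence ratio, and plasmids from each gate were PCR-amplified and Illumina-sequenced, with reads assigned to strains by barcodes. The protein stability index for each peptide was each gate's read frequency times its gate number, summed.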

± gives the uncertainty stated by the source.

In turn, LNLFSNVLKAPFIKSES [SIR4] gave a protein stability index (doa10∆) of 1.67 ± 0.061, a protein stability index (pdr5∆) of 1.75 ± 0.087, a protein stability index (san1∆) of 1.26 ± 0.13 and a protein stability index (ubr1∆) of 1.79 ± 0.056.
The corresponding values for LNLSLHKLDLAKRNLDA [SMC2] are 2.28 ± 0.046, 2.78 ± 0.043, 2.62 ± 0.047 and 2.17 ± 0.029.
The sequence LNSFVNDIFERIATEAS [HTB1] returned a protein stability index (doa10∆) of 2.95 ± 0.11, a protein stability index (pdr5∆) of 2.89 ± 0.091, a protein stability index (san1∆) of 2.63 ± 0.1 and a protein stability index (ubr1∆) of 2.96 ± 0.061.
Taken in the same sequence, the figures for LNSLKDERSQGEKNFTS [SMC4] were 3.41 ± 0.12, 3.3 ± 0.25, 3.05 ± 0.087 and 3.5 ± 0.11.
As to LNSMEKDRISHEVVQDD [PCI8], the protein stability index came out at 2.61 ± 0.079 (doa10∆), 2.69 ± 0.061 (pdr5∆), 3.01 ± 0.067 (san1∆) and 2.41 ± 0.12 (ubr1∆).
The corresponding values for LNTVLIADLDTEAEETS [RRP43] are 3.11 ± 0.08, 2.87 ± 0.065, 3.04 ± 0.047 and 3.21 ± 0.051.
The corresponding values for LNVIIDQLAVSPEQIDA [YCS4] are 2.19 ± 0.05, 2.44 ± 0.056, 2.11 ± 0.064 and 2.11 ± 0.044.
The corresponding values for LNVTPSKRPQLGEIPNP [SIR4] are 2.54 ± 0.072, 2.83 ± 0.066, 2.66 ± 0.075 and 2.88 ± 0.063.
Regarding LNVYHYFGENSSISWKN [YJL039C/NUP192], the protein stability index runs as follows: (doa10∆) 1.79 ± 0.08; (pdr5∆) 2.76 ± 0.082; (san1∆) 2.65 ± 0.083; (ubr1∆) 3.03 ± 0.1.
The corresponding values for LNYGVYLNGTLIGSIRF [RET1] are 1.43 ± 0.07, 2.29 ± 0.097, 2.53 ± 0.088 and 2.71 ± 0.088.
The corresponding values for LPDGKNGNLEEEFAYVD [MED6] are 3.41 ± 0.066, 3.44 ± 0.12, 3.42 ± 0.052 and 3.32 ± 0.074.
Taken in the same sequence, the figures for LPDPILKNFLSYESLKK [MCD1] were 3 ± 0.094, 3.14 ± 0.091, 3.34 ± 0.046 and 3.37 ± 0.058.
For the sequence LPGKVNTKEEFAAAPND [SNF5], the protein stability index was determined as 2.66 ± 0.084 (doa10∆), 2.91 ± 0.061 (pdr5∆), 2.84 ± 0.058 (san1∆) and 2.85 ± 0.067 (ubr1∆).
Taken in the same sequence, the figures for LPTNPTLDKPNAEATKE [CSE2] were 2.91 ± 0.072, 2.87 ± 0.062, 2.89 ± 0.046 and 2.85 ± 0.066.
The corresponding values for LPYLSDTCAVSFDAVSD [YJR042W/NUP85] are 2.44 ± 0.1, 2.63 ± 0.059, 2.55 ± 0.078 and 2.87 ± 0.05.
Taken in the same sequence, the figures for LQAIDLLENPNCFFDVI [DIS3] were 2.48 ± 0.068, 2.29 ± 0.066, 3.06 ± 0.056 and 2.38 ± 0.056.
As to LQALKANDEEAYIKLLD [SNF2], the protein stability index stood at 2.91 ± 0.093 (doa10∆), 3.29 ± 0.1 (pdr5∆), 3.36 ± 0.11 (san1∆) and 2.77 ± 0.2 (ubr1∆).
The corresponding values for LQAQDRAHRIGQKNEVR [SNF2] are 3 ± 0.065, 3.17 ± 0.077, 2.86 ± 0.073 and 3.18 ± 0.063.
Sequence LQCPMLYVESTGKFVLQ [CSN12] displayed a protein stability index (doa10∆) of 2.34 ± 0.12, a protein stability index (pdr5∆) of 2.98 ± 0.12, a protein stability index (san1∆) of 2.43 ± 0.15 and a protein stability index (ubr1∆) of 2.68 ± 0.1.
The corresponding values for LQDELHKVSSQSTNLNR [YCS4] are 2.97 ± 0.061, 3.06 ± 0.068, 3.05 ± 0.045 and 2.87 ± 0.053.
As for LQEIYQTDAIKSDEAKW [RPN5], the protein stability index is, setting by setting: (doa10∆) 2.34 ± 0.09; (pdr5∆) 2.5 ± 0.13; (san1∆) 2.13 ± 0.13; (ubr1∆) 2.16 ± 0.17.
Taken in the same sequence, the figures for LQIVNQLPANMVHLYSI [RPC17] were 1.85 ± 0.043, 1.9 ± 0.045, 1.67 ± 0.068 and 1.79 ± 0.039.
The corresponding values for LQKAVRGHVLQFEWHQN [SNF2] are 1.27 ± 0.043, 1.34 ± 0.063, 1.37 ± 0.16 and 1.35 ± 0.058.
On to LQKEFLPHITQLEGFES [RPB2], for which the protein stability index (doa10∆) worked out at 1.9 ± 0.047, the protein stability index (pdr5∆) turned out to be 1.84 ± 0.041, the protein stability index (san1∆) worked out at 1.69 ± 0.053 and the protein stability index (ubr1∆) amounted to 1.55 ± 0.025.
Taken in the same sequence, the figures for LQLSKTPLSIKIMVAEW [SRB8] were 2.31 ± 0.17, 2.84 ± 0.072, 2.69 ± 0.13 and 3 ± 0.12.
The corresponding values for LQMRLKESEISHNENKM [YIL149C/MLP2] are 2.94 ± 0.065, 2.96 ± 0.068, 3.18 ± 0.068 and 3.18 ± 0.09.

Values taken from the supplement of paper PMC9732359.
